This series concerns the molecule itself. Put plainly: cross-linking.

B1: Flag-PKM2 K305R (enzyme)
chain: not shown
B1: the binding result is “binds”.

The values are drawn from article PMC4930699 (Cancer research, 2016).
